Measured values reported in patent publication US20020058024A1 (YEDA RESEARCH AND DEVELOPMENT, published 2002).

T1: RAP (RIP-associated protein) (human, UniProt Q9Y3I1 1-522, limits assumed)
T1 construct: The clone first isolated in the two-hybrid screen was a partial clone of about 1.9 Kb; also called RAP protein; RAP-1 (clone of about 2.2 kB, CNCM I-2706)
T1 sequence: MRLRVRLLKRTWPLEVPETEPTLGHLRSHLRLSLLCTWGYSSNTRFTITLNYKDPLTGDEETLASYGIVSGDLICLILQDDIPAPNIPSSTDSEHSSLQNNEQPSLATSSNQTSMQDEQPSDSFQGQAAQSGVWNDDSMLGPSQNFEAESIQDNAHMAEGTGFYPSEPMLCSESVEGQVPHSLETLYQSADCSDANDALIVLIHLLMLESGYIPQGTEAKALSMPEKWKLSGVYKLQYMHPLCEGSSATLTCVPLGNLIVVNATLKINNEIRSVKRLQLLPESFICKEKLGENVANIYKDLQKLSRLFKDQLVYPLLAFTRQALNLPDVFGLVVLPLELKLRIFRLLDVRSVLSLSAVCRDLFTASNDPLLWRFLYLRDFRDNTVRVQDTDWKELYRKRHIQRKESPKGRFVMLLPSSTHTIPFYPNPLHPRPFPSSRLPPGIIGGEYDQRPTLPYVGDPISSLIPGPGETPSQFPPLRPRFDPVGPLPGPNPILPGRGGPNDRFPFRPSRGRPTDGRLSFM


Biological target: T1, RAP (RIP-associated protein)
Test: binding assay tests (method not named)

| binding result | Binder |
| --- | --- |
| no binding | MORT-1 (other, UniProt Q13158 1-208, looked up, also called FADD) MDPFLVLLHSVSSSLSSSELTELKFLCLGRVGKRKLERVQSGLDLFSMLLEQNDLEPGHTELLRELLASLRRHDLLRRVDDFEAGAAAGAAPGEEDLCAAFNVICDNVGKDWRRLARQLKVSDTKIDSIEDRYPRNLTERVRESLRIWKNTEKENATVAHLVGALRSCQMNLVADLVQEVQQARDLQNRSGAMSPMSWNSDASTSEAS |
| no binding | p75-R (receptor, UniProt P20333 287-461, looked up, also called p75 TNF-R; p75 tumor necrosis factor receptor) VKKKPLCLQREAKVPHLPADKARGTQGPEQQHLLITAPSSSSSSLESSASALDRRAPTRNQPQAPGVEASGAGEARASTGSSDSSPGGHGTQVNVTCIVNVCSSSDHSSQCSSQASSTMGDTDSSPSESPKDEQVPFSKEECAFRSQLETPETLLGSTEEKPLPLGVPDAGMKPS |

Further lines, the binder ahead of its results:

| Binder | binding result |
| --- | --- |
| TRADD (other, UniProt Q15628 1-312, looked up) MAAGQNGHEEWVGSAYLFVESSLDKVVLSDAYAHPQQKVAVYRALQAALAESGGSPDVLQMLKIHRSDPQLIVQLRFCGRQPCGRFLRAYREGALRAALQRSLAAALAQHSVPLQLELRAGAERLDALLADEERCLSCILAQQPDRLRDEELAELEDALRNLKCGSGARGGDGEVASAPLQPPVPSLSEVKPPPPPPPAQTFLFQGQPVVNRPLSLKDQQTFARSVGLKWRKVGRSLQRGCRALRDPALDSLAYEYEREGLYEQAFQLLRRFVQAEGRRATLQRLVEALEENELTSLAEDLLGLTDPNGGLA | no binding |
| p55-R (receptor, UniProt P19438 235-455, looked up, also called p55 TNF-R; p55 tumor necrosis factor receptor) RYQRWKSKLYSIVCGKSTPEKEGELEGTTTKPLAPNPSFSPTPGFTPTLGFSPVPSSTFTSSSTYTPGDCPNFAAPRREVAPPYQGADPILATALASDPIPNPLQKWEDSAHKPQSLDTDDPATLYAVVENVPPLRWKEFVRRLGLSDHEIDRLELQNGRCLREAQYSMLATWRRRTPRREATLELLGRVLRDMDLLGCLEDIEEALCGPAALPPAPSLLR | no binding |
